Test results: patent publication US10472401B2, “Peptides and combination of peptides for use in immunotherapy against ovarian cancer and other cancers” (immatics biotechnologies GmbH, priority 2015, dated 2019)

Molecular target: HLA-A*02:01 (Homo sapiens, UniProt P04439, D140Y/D185E/D98H/E176V/E277Q/G131W/G231S/I119V/I121R/I166T/I218V/L300P/L318F/N151K/N90K/P208A/P217A/Q86G/Q94H/R138H/R169H/T345S)
Experiment: MHC binding assay (UV-ligand exchange, ELISA of stabilized MHC complexes)
Details: MHC class I binding score; binding to HLA-A*02:01 ranged by peptide exchange yield (UV-ligand exchange, ELISA)
Outline: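 Binding scored as exchange yield, detected via β2m of stabilized complexes in an HRP/TMB ELISA read at 450 nm after streptavidin capture of 100-fold diluted monomers for 1 h at 37 °C. Complexes came from UV irradiation cleaving a photolabile peptide, exchanged for the candidate.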

| Substance | Peptide exchange |
| --- | --- |
| 478 (YLLHEKLNL; listed as Homo sapiens) [compound 478] | ″+++″ (≥50% = +++) |
| 80 (FLYDNLVESL; listed as Homo sapiens) [compound 80] | ″++″ (≥20% = ++) |
| 429 (GLVNDLARV; listed as Homo sapiens) [compound 429] | ″++″ (≥20% = ++) |
| 447 (QLVPALAKV; listed as Homo sapiens) [compound 447] | ″++″ (≥20% = ++) |
| 324 (FLYDEIEAEV; listed as Homo sapiens) [compound 324] | ″+++″ (≥50% = +++) |
| 185 (FLIDDKGYTL; listed as Homo sapiens) [compound 185] | ″++″ (≥20% = ++) |
| 512 (SLSEIVPCL; listed as Homo sapiens) [compound 512] | ″+++″ (≥50% = +++) |
| 183 (FGLDLVTEL; listed as Homo sapiens) [compound 183] | ″+++″ (≥50% = +++) |
| 53 (KMIETDILQKV; listed as Homo sapiens) [compound 53] | ″++++″ (≥75% = ++++) |
| 375 (SLTETIEGV; listed as Homo sapiens) [compound 375] | ″++″ (≥20% = ++) |
| 273 (NLFQSVREV; listed as Homo sapiens) [compound 273] | ″++″ (≥20% = ++) |
| 529 (LLADELITV; listed as Homo sapiens) [compound 529] | ″+++″ (≥50% = +++) |
| 59 (IMEDIILTL; listed as Homo sapiens) [compound 59] | ″+++″ (≥50% = +++) |
| 267 (ALQDFLLSV; listed as Homo sapiens) [compound 267] | ″+++″ (≥50% = +++) |
| 397 (YLFGERLLEC; listed as Homo sapiens) [compound 397] | ″+++″ (≥50% = +++) |
| 157 (SLNDEVPEV; listed as Homo sapiens) [compound 157] | ″++″ (≥20% = ++) |

| Substance | Peptide exchange |
| --- | --- |
| 241 (SLVEVNPAYSV; listed as Homo sapiens) [compound 241] | ″+++″ (≥50% = +++) |
| 514 (ILVDWLVQV; listed as Homo sapiens) [compound 514] | ″+++″ (≥50% = +++) |
| 96 (YIFTDNPAAV; listed as Homo sapiens) [compound 96] | ″+++″ (≥50% = +++) |
| 175 (YLFENISQL; listed as Homo sapiens) [compound 175] | ″+++″ (≥50% = +++) |
| 281 (ILRESTEEL; listed as Homo sapiens) [compound 281] | ″+++″ (≥50% = +++) |
| 99 (ALVSKGLATV; listed as Homo sapiens) [compound 99] | ″++″ (≥20% = ++) |
| 197 (ALGPEGGRV; listed as Homo sapiens) [compound 197] | ″++″ (≥20% = ++) |
| 588 (SLLPLSHLV; listed as Homo sapiens) [compound 588] | ″+++″ (≥50% = +++) |
| 78 (SLFSSLEPQIQPV; listed as Homo sapiens) [compound 78] | ″+++″ (≥50% = +++) |
| 254 (TLLAFIMEL; listed as Homo sapiens) [compound 254] | ″+++″ (≥50% = +++) |
| 570 (ALANQIPTV; listed as Homo sapiens) [compound 570] | ″++″ (≥20% = ++) |
| 257 (SIFSAFLSV; listed as Homo sapiens) [compound 257] | ″+++″ (≥50% = +++) |
| 15 (VLLTFKIFL; listed as Homo sapiens) [compound 15] | ″++″ (≥20% = ++) |
| 277 (LLPPLESLATV; listed as Homo sapiens) [compound 277] | ″++″ (≥20% = ++) |
| 618 (VLFDSESIGIYV; listed as Homo sapiens) [compound 618] | ″+++″ (≥50% = +++) |
| 346 (LLDSKVPSV; listed as Homo sapiens) [compound 346] | ″+++″ (≥50% = +++) |
